In the test the target is 2019-nCoV N protein (SARS-CoV-2, UniProt P0DTC9). In words: BLI.

B1: WT anti-N antibody (antibody, V domains shown)
VH: QIQLVQSGPELKKPGETVKISCKASGFTFTDYAMNWVKQAPGKGLKWMGWLNTYSGEPTYAEDFKGRFAFSLETSASTAYLQINNLKNEDTATYFCARTAILRSYFDYWGQGTTLTVSS
VL: DIVMTQSHKFMSTSVGDRVSITCKASEDLSTALAWCQQKPGQSPKLLIYWGSTRHSGVPDRFTGIRSGTDYTLTISSVQAEDLALYYCQQHWSTPLTFGAGTKLELKR
Molecule B1 displayed a Kd of 7.25 nM.

Source of the values: US20260327291 (published 2026).
